From patent US20260116990A1 (KEY2BRAIN, published 2026)

Key:
[1] = target: T1, His-tagged ectodomain of human transferrin receptor 1 (hTfR1, R121-F760) (human, UniProt P02786 121-760); experiment: SPR; hTfR1 captured on amine-coupled hTf, binder as analyte
T1 construct: Made in CHO cells; Biotinylated for some uses; also called human TfR1
Protocol: (§1) The contact time was 150 s for each concentration at […] with a final dissociation step of 500 s. […] The data with respect to the association rate constant (ka), the dissociation rate constant (kd) and the equilibrium dissociation constant (KD) was evaluated using Biacore T200 software evaluation tool applying a Langmuir 1:1 model.

[2] = target: T1, His-tagged ectodomain of human …; experiment: SPR Biacore T200 single-cycle; hTfR1 captured on amine-coupled hTf, binder as analyte; 1:1 model
Protocol: as §1

[3] = target: T1, His-tagged ectodomain of human …; experiment: SPR Biacore 8K single-cycle; hTfR1 amine-coupled to CM5 chip, fusion as analyte
[4] = target: T2, His-tagged ectodomain of mouse transferrin receptor 1 (mTfR1, S122-F763) (mouse, UniProt Q62351 122-763); experiment: ELISA on coated TfR1 ectodomain; 125I-labelled or original sample, anti-VHH detection
T2 construct: also called mouse TfR1
Protocol: Briefly, high-binding half-area 96-well plates (Costar 3690, Merck) were coated with ectodomains of hTfR1 and mTfR1 at […] (in PBS pH 7.4). and left over night at 4° C. Plates were blocked for 1 h using 1% BSA 0.05% Tween®20 (Merck) in PBS.

T1 sequence (P02786 other isoform, or with tags, fused parts or gaps limits assumed): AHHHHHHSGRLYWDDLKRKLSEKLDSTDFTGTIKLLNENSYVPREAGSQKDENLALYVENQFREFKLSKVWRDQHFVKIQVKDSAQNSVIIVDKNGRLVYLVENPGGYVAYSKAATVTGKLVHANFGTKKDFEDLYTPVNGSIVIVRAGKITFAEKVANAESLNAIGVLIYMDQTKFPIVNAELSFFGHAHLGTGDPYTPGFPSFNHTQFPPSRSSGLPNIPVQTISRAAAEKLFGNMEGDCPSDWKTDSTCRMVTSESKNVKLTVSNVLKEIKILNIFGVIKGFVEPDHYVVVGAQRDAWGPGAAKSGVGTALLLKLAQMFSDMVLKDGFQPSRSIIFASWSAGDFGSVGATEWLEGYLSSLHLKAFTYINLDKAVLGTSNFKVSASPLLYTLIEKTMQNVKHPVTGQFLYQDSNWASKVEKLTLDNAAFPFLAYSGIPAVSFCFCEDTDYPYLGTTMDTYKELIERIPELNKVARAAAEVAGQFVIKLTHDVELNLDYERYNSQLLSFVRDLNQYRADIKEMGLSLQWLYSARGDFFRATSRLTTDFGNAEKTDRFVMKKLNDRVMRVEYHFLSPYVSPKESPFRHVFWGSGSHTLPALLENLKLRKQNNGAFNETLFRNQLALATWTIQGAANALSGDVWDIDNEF
T2 sequence (Q62351 other isoform, or with tags, fused parts or gaps limits assumed): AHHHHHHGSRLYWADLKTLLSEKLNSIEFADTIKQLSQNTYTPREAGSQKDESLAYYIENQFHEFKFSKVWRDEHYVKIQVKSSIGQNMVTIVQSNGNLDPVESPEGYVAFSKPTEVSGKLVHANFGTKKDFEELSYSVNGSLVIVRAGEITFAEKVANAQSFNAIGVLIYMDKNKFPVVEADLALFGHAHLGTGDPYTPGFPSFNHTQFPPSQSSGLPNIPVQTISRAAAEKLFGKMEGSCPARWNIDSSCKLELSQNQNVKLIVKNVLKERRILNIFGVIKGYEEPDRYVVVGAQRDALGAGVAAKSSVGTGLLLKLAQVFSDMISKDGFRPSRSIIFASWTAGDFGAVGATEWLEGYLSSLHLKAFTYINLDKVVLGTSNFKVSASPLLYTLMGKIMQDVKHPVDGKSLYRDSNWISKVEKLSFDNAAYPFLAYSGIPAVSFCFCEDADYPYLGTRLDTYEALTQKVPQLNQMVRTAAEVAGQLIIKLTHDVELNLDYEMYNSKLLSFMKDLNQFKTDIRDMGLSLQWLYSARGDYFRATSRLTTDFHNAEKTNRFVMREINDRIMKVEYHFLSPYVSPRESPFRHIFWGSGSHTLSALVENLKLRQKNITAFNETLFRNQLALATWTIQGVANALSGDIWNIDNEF

Row | Binder | fold lower affinity (KD) than BA1 [1] [fold] | Kd [2] [nM] | koff [2] [s⁻¹] | kon [2] [M⁻¹ s⁻¹] | Kd [3] [nM] | koff [3] [s⁻¹] | kon [3] [M⁻¹ s⁻¹] | binding result [4]
1 | KB_B01 monomeric VHH with C-terminal 6xHis tag and C-tag (VHH, Single VHH unit from the E. coli periplasm) VHH: QVQLQESGGGLVQAGGSLRLSCAASGTPFSNNYMRWYRQAPGKQREWVAGFTSGGSTNYADSVKGRFTISRDNAEGTVYLQMDNLKPEDTAVYYCYFLDVWGQGTQVTVSS | 166 | 3.31 | 0.00198 | 597000 |  |  |  | 
2 | scFv-KB_B01 (3D6 scFv at the N-terminus of KB_B01) (bispecific antibody, also called scFv-VHH) EVKLVESGGGLVKPGASLKLSCAASGFTFSNYGMSWVRQNSDKRLEWVASIRSGGGRTYYSDNVKGRFTISRENAKNTLYLQMSSLKSEDTALYYCVRYDHYSGSSDYWGQGTTVTVSGGGGSGGGGSGGGGSYVVMTQTPLTLSVTIGQPASISCKSSQSLLDSDGKTYLNWLLQRPGQSPKRLIYLVSKLDSGVPDRFTGSGSGTDFTLKISRIEAEDLGLYYCWQGTHFPRTFGGGTKLEIKGGGGSGGGGSGGGGSQVQLQESGGGLVQAGGSLRLSCAASGTPFSNNYMRWYRQAPGKQREWVAGFTSGGSTNYADSVKGRFTISRDNAEGTVYLQMDNLKPEDTAVYYCYFLDVWGQGTQVTVSSGSENLYFQSHHHHHH |  |  |  |  | 1.8 | 0.000259 | 144000 | binds
3 | KB_B01-scFv (KB_B01 at the N-terminus of 3D6 scFv) (bispecific antibody, also called VHH-scFv) QVQLQESGGGLVQAGGSLRLSCAASGTPFSNNYMRWYRQAPGKQREWVAGFTSGGSTNYADSVKGRFTISRDNAEGTVYLQMDNLKPEDTAVYYCYFLDVWGQGTQVTVSSGGGGSGGGGSGGGGSEVKLVESGGGLVKPGASLKLSCAASGFTFSNYGMSWVRQNSDKRLEWVASIRSGGGRTYYSDNVKGRFTISRENAKNTLYLQMSSLKSEDTALYYCVRYDHYSGSSDYWGQGTTVTVSGGGGSGGGGSGGGGSYVVMTQTPLTLSVTIGQPASISCKSSQSLLDSDGKTYLNWLLQRPGQSPKRLIYLVSKLDSGVPDRFTGSGSGTDFTLKISRIEAEDLGLYYCWQGTHFPRTFGGGTKLEIKGSENLYFQSHHHHHH |  |  |  |  | 0.845 | 0.00045 | 535000 | binds

Continued by falling Kd [3], values first:

Row | fold lower affinity (KD) than BA1 [1] [fold] | Kd [2] [nM] | koff [2] [s⁻¹] | kon [2] [M⁻¹ s⁻¹] | Kd [3] [nM] | koff [3] [s⁻¹] | kon [3] [M⁻¹ s⁻¹] | binding result [4] | Binder
4 |  |  |  |  | 0.698 | 0.000122 | 175000 | binds | scFv-BV (3D6 scFv at the N-terminus of benchmark VHH BV) (bispecific antibody, also called scFc-BV) EVKLVESGGGLVKPGASLKLSCAASGFTFSNYGMSWVRQNSDKRLEWVASIRSGGGRTYYSDNVKGRFTISRENAKNTLYLQMSSLKSEDTALYYCVRYDHYSGSSDYWGQGTTVTVSGGGGSGGGGSGGGGSYVVMTQTPLTLSVTIGQPASISCKSSQSLLDSDGKTYLNWLLQRPGQSPKRLIYLVSKLDSGVPDRFTGSGSGTDFTLKISRIEAEDLGLYYCWQGTHFPRTFGGGTKLEIKGGGGSGGGGSGGGGSEVQLVESGGGVVQPGGSLKLSCVASGTDFSINFIRWYRQAPGKQREFVAGFTATGNTNYADSMKGRFTISRDNTKNAVYLQIDSLKPEDTAVYYCYMLDKWGQGTQVTVSSGSENLYFQSHHHHHH
5 |  |  |  |  | 0.189 | 0.000117 | 617000 | binds | BV-scFv (benchmark VHH BV at the N-terminus of 3D6 scFv) (bispecific antibody) EVQLVESGGGVVQPGGSLKLSCVASGTDFSINFIRWYRQAPGKQREFVAGFTATGNTNYADSMKGRFTISRDNTKNAVYLQIDSLKPEDTAVYYCYMLDKWGQGTQVTVSSGGGGSGGGGSGGGGSEVKLVESGGGLVKPGASLKLSCAASGFTFSNYGMSWVRQNSDKRLEWVASIRSGGGRTYYSDNVKGRFTISRENAKNTLYLQMSSLKSEDTALYYCVRYDHYSGSSDYWGQGTTVTVSGGGGSGGGGSGGGGSYVVMTQTPLTLSVTIGQPASISCKSSQSLLDSDGKTYLNWLLQRPGQSPKRLIYLVSKLDSGVPDRFTGSGSGTDFTLKISRIEAEDLGLYYCWQGTHFPRTFGGGTKLEIKGSENLYFQSHHHHHH
